Measurements: publication PMC6426602, “Structure of Vibrio FliL, a New Stomatin-like Protein That Assists the Bacterial Flagellar Motor Function” (mBio, 2019)

Experiments:
[1] = biological target: the molecule itself; assay: crystal structure; FliLC crystal, space group P6(1), 2.1 Å, two molecules in the asymmetric unit; sitting drop at 20°C, protein 10 mg/ml in 20 mM Tris-HCl pH 8.0, 150 mM NaCl; reservoir 0.1 M sodium acetate pH 4.4, 22.5% PEG 4000, 0.2 M ammonium sulfate
[2] = biological target: the molecule itself; assay: crystal structure; FliLPeri crystal, space group P4(2)2(1)2, 3.4 Å, 20 molecules in the asymmetric unit; sitting drop at 20°C, protein 70 mg/ml in 20 mM Tris-HCl pH 8.0, 150 mM NaCl; reservoir 0.1 M sodium acetate pH 6.0, 25% PEG 200, 0.15 M CaCl2, 1.4% EtOH

B1: FliLC, trypsin-resistant core of the periplasmic region of polar FliL (residues 58 to 167) (domain or fragment, Vibrio alginolyticus, UniProt A0A7H8DP68 58-167, looked up)
chain: ASDAAPIAYVNLPQAFVFNVTGDSRDRLVQIKAQLMVRGAENEELARYHSPLIESSMLSTFASATVDQLRSPTGRVELRDRASEDIKAALNAAVGKPVIEKVLFTDFVIQ
notes: polar flagellar FliL of Vibrio alginolyticus, fragment of residues 58 to 167 left after trypsin digestion of FliLPeri; also called FliL_(58-167)
[1]
  binding result: binds

B2: periplasmic region of polar FliL (FliLPeri) of Vibrio alginolyticus (domain or fragment, UniProt A0A7H8DP68 41-167, looked up)
chain: GSDEPAQAESSQQAQVKASDAAPIAYVNLPQAFVFNVTGDSRDRLVQIKAQLMVRGAENEELARYHSPLIESSMLSTFASATVDQLRSPTGRVELRDRASEDIKAALNAAVGKPVIEKVLFTDFVIQ
notes: polar flagellar FliL of Vibrio alginolyticus, periplasmic region, residues 41 to 167; Residues 41-57 are invisible in the map; also called His6-FliL_(Peri); copies: 10
[2]
  stoichiometry N: 10 subunits in a ring
